The assay concerns the target MBP-Brh2 (U. maydis). The experiment in a line: pull-down.

As to “hexahistidine (His)-tagged Dss1 (natural protein)”, the fold lower level of Dss1 in the DNA-bound fraction than with Brh2Δ362–493::OB-AB is above 20 fold.
